Test results published in patent US20180155451A1 (published 2018).

T1: FcγRIIa R (human, UniProt P12318 34-217)
T1 construct: extracellular domain; Soluble extracellular domain with C-terminal His tag, expressed in FreeStyle293 cells; also called FcgRIIa R; FcγRIIa type R; not shown: His tag attached to the C terminus
T1 sequence (looked up): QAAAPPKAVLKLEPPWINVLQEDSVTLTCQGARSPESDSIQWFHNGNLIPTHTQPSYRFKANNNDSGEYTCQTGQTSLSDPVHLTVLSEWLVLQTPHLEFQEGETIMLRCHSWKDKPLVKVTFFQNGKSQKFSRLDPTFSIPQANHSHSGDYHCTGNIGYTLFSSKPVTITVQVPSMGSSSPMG


What follows are binders tested against T1, FcγRIIa R (assay: SPR (Biacore), antibody captured via antigen peptide, FcγRIIa R as analyte; homodimerized antibody).
Experimental: (§1) Analysis of interaction between objective antibody and the FcγR was carried out using Biacore T100 (GE Healthcare). HBS-EP+ (GE Healthcare) was used as the running buffer, and the measurement temperature was set to 25° C. Chips produced by immobilizing the antigen peptide by the amine coupling method to a Series S Sencor Chip CM5 (GE Healthcare), or alternatively, chips produced by allowing preliminarily biotinylated antigen peptides to interact with and immobilize onto a Series S Sensor Chip SA (certified) (GE Healthcare) were used. Antibodies of interest were captured onto an antigen peptide-immobilized chip, and allowed to interact to each FcγR diluted with running buffer. To regenerate and repeatedly use the chip, the antibodies captured on the chip were washed off by reacting 10 mM glycine-HCl, pH 1.5.

| Binder | Ho/Con_2aR |
| --- | --- |
| GpH7-B3 variant T335_08L/GpL16-k0 (antibody, human IgG1, kappa, homodimerized; mutation in both H chains; also called Ho Ab) heavy: not shown light: DIVMTQSPLSLPVTPGEPASISCQASESLVHSNRNTYLHWYLQKPGQSPQLLIYKVSNRFSGVPDRFSGSGSGTDFTLKISRVEAEDVGVYYCSQNTHVPPTFGQGTKVEIERTVAAPSVFIFPPSDEQLKSGTASVVCLLNNFYPREAKVQWKVDNALQSGNSQESVTEQDSKDSTYSLSSTLTLSKADYEKHKVYACEVTHQGLSSPVTKSFNRGEC | 108 % of control (GpH7-B3/GpL16-k0 = 100) |
| GpH7-B3 variant T335_16H/GpL16-k0 (antibody, human IgG1, kappa, homodimerized; mutation in both H chains; also called Ho Ab) heavy: not shown light: DIVMTQSPLSLPVTPGEPASISCQASESLVHSNRNTYLHWYLQKPGQSPQLLIYKVSNRFSGVPDRFSGSGSGTDFTLKISRVEAEDVGVYYCSQNTHVPPTFGQGTKVEIERTVAAPSVFIFPPSDEQLKSGTASVVCLLNNFYPREAKVQWKVDNALQSGNSQESVTEQDSKDSTYSLSSTLTLSKADYEKHKVYACEVTHQGLSSPVTKSFNRGEC | 102 % of control (GpH7-B3/GpL16-k0 = 100) |
| GpH7-B3 variant T335_09D/GpL16-k0 (antibody, human IgG1, kappa, homodimerized; mutation in both H chains; also called Ho Ab) heavy: not shown light: DIVMTQSPLSLPVTPGEPASISCQASESLVHSNRNTYLHWYLQKPGQSPQLLIYKVSNRFSGVPDRFSGSGSGTDFTLKISRVEAEDVGVYYCSQNTHVPPTFGQGTKVEIERTVAAPSVFIFPPSDEQLKSGTASVVCLLNNFYPREAKVQWKVDNALQSGNSQESVTEQDSKDSTYSLSSTLTLSKADYEKHKVYACEVTHQGLSSPVTKSFNRGEC | 113 % of control (GpH7-B3/GpL16-k0 = 100) |

Continued, values first:

| Ho/Con_2aR | Binder |
| --- | --- |
| 146 % of control (GpH7-B3/GpL16-k0 = 100) | GpH7-B3 variant V266_06M/GpL16-k0 (antibody, human IgG1, kappa, homodimerized; mutation in both H chains; also called Ho Ab) heavy: not shown light: DIVMTQSPLSLPVTPGEPASISCQASESLVHSNRNTYLHWYLQKPGQSPQLLIYKVSNRFSGVPDRFSGSGSGTDFTLKISRVEAEDVGVYYCSQNTHVPPTFGQGTKVEIERTVAAPSVFIFPPSDEQLKSGTASVVCLLNNFYPREAKVQWKVDNALQSGNSQESVTEQDSKDSTYSLSSTLTLSKADYEKHKVYACEVTHQGLSSPVTKSFNRGEC |
| 109 % of control (GpH7-B3/GpL16-k0 = 100) | GpH7-B3 variant Y300_04F/GpL16-k0 (antibody, human IgG1, kappa, homodimerized; mutation in both H chains; also called Ho Ab) heavy: not shown light: DIVMTQSPLSLPVTPGEPASISCQASESLVHSNRNTYLHWYLQKPGQSPQLLIYKVSNRFSGVPDRFSGSGSGTDFTLKISRVEAEDVGVYYCSQNTHVPPTFGQGTKVEIERTVAAPSVFIFPPSDEQLKSGTASVVCLLNNFYPREAKVQWKVDNALQSGNSQESVTEQDSKDSTYSLSSTLTLSKADYEKHKVYACEVTHQGLSSPVTKSFNRGEC |
| 100 % of control (GpH7-B3/GpL16-k0 = 100) | GpH7-B3 variant T335_18N/GpL16-k0 (antibody, human IgG1, kappa, homodimerized; mutation in both H chains; also called Ho Ab) heavy: not shown light: DIVMTQSPLSLPVTPGEPASISCQASESLVHSNRNTYLHWYLQKPGQSPQLLIYKVSNRFSGVPDRFSGSGSGTDFTLKISRVEAEDVGVYYCSQNTHVPPTFGQGTKVEIERTVAAPSVFIFPPSDEQLKSGTASVVCLLNNFYPREAKVQWKVDNALQSGNSQESVTEQDSKDSTYSLSSTLTLSKADYEKHKVYACEVTHQGLSSPVTKSFNRGEC |
| 101 % of control (GpH7-B3/GpL16-k0 = 100) | GpH7-B3 variant T335_20W/GpL16-k0 (antibody, human IgG1, kappa, homodimerized; mutation in both H chains; also called Ho Ab) heavy: not shown light: DIVMTQSPLSLPVTPGEPASISCQASESLVHSNRNTYLHWYLQKPGQSPQLLIYKVSNRFSGVPDRFSGSGSGTDFTLKISRVEAEDVGVYYCSQNTHVPPTFGQGTKVEIERTVAAPSVFIFPPSDEQLKSGTASVVCLLNNFYPREAKVQWKVDNALQSGNSQESVTEQDSKDSTYSLSSTLTLSKADYEKHKVYACEVTHQGLSSPVTKSFNRGEC |
| 107 % of control (GpH7-B3/GpL16-k0 = 100) | GpH7-B3 variant Y296_20W/GpL16-k0 (antibody, human IgG1, kappa, homodimerized; mutation in both H chains; also called Ho Ab) heavy: not shown light: DIVMTQSPLSLPVTPGEPASISCQASESLVHSNRNTYLHWYLQKPGQSPQLLIYKVSNRFSGVPDRFSGSGSGTDFTLKISRVEAEDVGVYYCSQNTHVPPTFGQGTKVEIERTVAAPSVFIFPPSDEQLKSGTASVVCLLNNFYPREAKVQWKVDNALQSGNSQESVTEQDSKDSTYSLSSTLTLSKADYEKHKVYACEVTHQGLSSPVTKSFNRGEC |
| 102 % of control (GpH7-B3/GpL16-k0 = 100) | GpH7-B3 variant T335_19Q/GpL16-k0 (antibody, human IgG1, kappa, homodimerized; mutation in both H chains; also called Ho Ab) heavy: not shown light: DIVMTQSPLSLPVTPGEPASISCQASESLVHSNRNTYLHWYLQKPGQSPQLLIYKVSNRFSGVPDRFSGSGSGTDFTLKISRVEAEDVGVYYCSQNTHVPPTFGQGTKVEIERTVAAPSVFIFPPSDEQLKSGTASVVCLLNNFYPREAKVQWKVDNALQSGNSQESVTEQDSKDSTYSLSSTLTLSKADYEKHKVYACEVTHQGLSSPVTKSFNRGEC |

Each binder was assayed against T1, FcγRIIa R (assay: SPR (Biacore), antibody captured via antigen peptide, FcγRIIa R as analyte; heterodimerized antibody).
Experimental: as §1

| He/Con_2aR | Binder |
| --- | --- |
| 111 % of control (GpH7-A5/GpH7-B3/GpL16-k0 = 100) | GpH7-A5/GpH7-B3 variant T335_15Y/GpL16-k0 (antibody, human IgG1, kappa, heterodimerized; mutation in one H chain only; also called He Ab) heavy 1: not shown heavy 2: not shown light: DIVMTQSPLSLPVTPGEPASISCQASESLVHSNRNTYLHWYLQKPGQSPQLLIYKVSNRFSGVPDRFSGSGSGTDFTLKISRVEAEDVGVYYCSQNTHVPPTFGQGTKVEIERTVAAPSVFIFPPSDEQLKSGTASVVCLLNNFYPREAKVQWKVDNALQSGNSQESVTEQDSKDSTYSLSSTLTLSKADYEKHKVYACEVTHQGLSSPVTKSFNRGEC |
